The target in the test is cell surface F1Fo-ATPase (human). Nature of the test: cell-based or functional assay.

Substance “apoA-I purified from human plasma (from UniProt P02647 25-267) (ligand)” displayed an HDL endocytosis by HepG2 cells (HDL-Alexa568 uptake), apoA-I 10 µg/mL, versus non-stimulated cells of 45%.

(Values after US20230050846A1, “TREATMENT OF HEPATIC AND CARDIOVASCULAR DISORDERS” (LIFESEARCH, priority 2019, published 2023).)
